# B1: LINE1-full (parent)
# chain: UACGUAGGUGGUUUUCCCCUGAUAGUGCUAAGGGGGCCUGGAAGUUUGGACUGGGCAGAGCUCAACACAGCGUGGCAAAGUGGCUGUGGCUAGACUGCCUCUCUGGAUUCCUCGUCACUCAGCAGGGCAUCUCUGAGAGAAAUGCC
# Variants of: B1
# Experiment: self-cleavage, relative activity (ratio to wild type); higher = more cleavage; in vitro, sequencing; the parent is a self-cleaving ribozyme
row,Variant,self-cleavage
1,U20C A30U,1.18
2,A141C,1.04
3,U39A A64G,0.21
4,U47G U52A,1.18
5,A6G U132C,0.9
6,U1C U81A,1.64
7,G8A U62C,0.05
8,U39A A142G,1.53
9,U12G A136U,0.76
10,U96G U104A,0.05
11,A42G G127A,1.04
12,A69G C146U,0.51
13,G54U U100C,0.22
14,U12C G41A,1.26
15,U20C G48U,1.27
16,A59U U87A,0.07
17,U12C U39C,1.4
18,G7U U132C,1.23
19,A107U A117G,1.34
20,U81A A142G,2.07
21,U13C C17U,1.19
22,U23C A140G,1.28
23,A92G A94G,0.12
24,G75A U119C,1.5

row,Variant,self-cleavage
1,U47A U100C,1.81
2,U15C A65U,0.2
3,U62C A92G,0.04
4,G114A A141G,0.89
5,U46C A138C,0
6,U9C U29A,1.1
7,A124U C145U,1.27
8,A117G G137A,1.66
9,A94G U112C,0.13
10,U87C G105A,0.14
11,C28A U134C,1.92
12,G41A U96C,0.11
13,U20A G137U,0.85
14,A6U C133A,0.49
15,A92U A140G,0.53
16,U119C A121U,1.48
17,U39A A141U,1.45
18,A138U U143A,1.52
19,G25A C38U,0.64
20,A24U A30G,1.09
21,U29G A57G,0.51
22,U47C U109C,1.61
23,G7A U13C,0.81
24,U12C U29A,1.16

row,Variant,self-cleavage
1,U46A C71A,0.25
2,U96G A141G,0
3,U47A A59U,0.81
4,A79G C146U,1.3
5,U26A A64U,0.23
6,A30G A92G,0
7,U5C A64U,0.49
8,G74A U81C,0.78
9,A43U U112C,1.48
10,A24G U112A,1.51
11,A78C U119C,2.95
12,U52G A59G,0.34
13,C3A A31G,0.87
14,G93A A107G,0.06
15,U29G A141U,0.35
16,U26C U87A,0.08
17,C16U G32A,1
18,A22G A59G,0.16
19,U12A A50G,1.45
20,G34A G126A,1.68
21,A30U A65G,0.06
22,U13C C18U,1.57
23,U12A U134A,0.6
24,U45C A64U,0.29

row,Variant,self-cleavage
1,G97A U100A,0.1
2,C28U U45G,1.09
3,U14C A121C,1.13
4,A2G U62C,0.09
5,G55U U132C,0.16
6,U112C A124C,0.77
7,C18U U85C,0.12
8,A24G A69U,0.21
9,U39C A67G,0.35
10,G89A U108C,0.04
11,A67G C131U,0.56
12,A65U G114A,0.19
13,A30U A124C,1.05
14,A30G A59G,0.11
15,U26A C128U,0.72
16,U23C A78G,1.25
17,U62A A79G,0.04
18,G21U C131U,1.41
19,A124G,0.98
20,U47C U96C,0.25
21,C128U,1.39
22,U9A G55C,0.09
23,G8U U15C,1.62
24,A78G A136U,1.79

row,Variant,self-cleavage
1,A6U U115C,1.28
2,U26A U115C,1.29
3,U102A A140U,1.42
4,A24G U130C,1.47
5,U39A C71U,0.97
6,U62C A77C,0.05
7,G32A C68U,0
8,U15A A57G,0.68
9,U15A U115C,1.09
10,A57U U132A,0.13
11,U85A U109G,0.05
12,A31G U85A,0.11
13,G41U A129G,1.03
14,A65G U108A,0.04
15,A42U C103A,0.91
16,U115G A138G,2.15
17,A6U G114A,0
18,U112C U134A,0.61
19,A64G U87G,0
20,U47C G93U,0.04
21,G49A U134C,0.75
22,C19U A57U,0.13
23,A22G A65G,0.08
24,U20A A107G,1.37

row,Variant,self-cleavage
1,C123A A141G,1.35
2,G35A G106A,1.21
3,U5A U14C,0.85
4,U39C G137A,1.09
5,A24U U143C,1.63
6,U9A U115C,1.55
7,A2G G137A,0.61
8,U9A U52A,0.9
9,A30G A50U,0.89
10,G7C A69G,0.79
11,U91C U130C,0.77
12,G44A A94G,0.27
13,U96A G139C,0.04
14,C3G A79G,1.04
15,U52C C71U,0.7
16,A2G U143A,0.99
17,A79C U96C,0.11
18,U62C U100A,0.05
19,U13C G41A,1.81
20,U23A A67G,0.71
21,U108C U143G,1.23
22,U26A A117G,1.11
23,G106A G127U,1.49
24,A64G A65G,0.11

row,Variant,self-cleavage
1,G58A U73C,0.04
2,U1C U26G,0.72
3,A117C G126A,1.64
4,G53C A65U,0.2
5,U12A A65C,0.14
6,G125U,1.23
7,U52C G89A,0.05
8,U62A A64G,0.05
9,U39C C110G,0.51
10,C111U U130C,1.75
11,A50C U104A,0.87
12,G83A U143C,0.71
13,A77U G114A,1.65
14,C128A U134A,0.3
15,U96A C128U,0.07
16,A67U U109A,0.11
17,U96C U132C,0.11
18,G4A U87A,0.12
19,U73A C123U,1.3
20,G93A U119C,0.04
21,A42G A138G,1.34
22,G4A U81C,1.44
23,C63A,0.06
